What all share (experiment): BLI
(In general: BLI is a label-free optical method that tracks binding on a fibre tip over time.)

Assay [1] has as its target TFPI-Fc (human IgG-Fc-tagged TFPI without the GPI anchor) (UniProt P10646). The following applies: for response: parent: est. 0.0, read off a plot.
Assay [2] has as its target mTFPI-Fc (Fc-tagged mouse TFPI) (mouse) (UniProt O54819).
The target of assay [3] is mTFPI-Fc (Fc-tagged mouse TFPI) (UniProt O54819). The following applies: 2000 nM fragment, read at end of association (~145 s), parent: est. 0.03, read off a plot.
mTFPI-Fc (Fc-tagged mouse TFPI), sequence (O54819 29-217): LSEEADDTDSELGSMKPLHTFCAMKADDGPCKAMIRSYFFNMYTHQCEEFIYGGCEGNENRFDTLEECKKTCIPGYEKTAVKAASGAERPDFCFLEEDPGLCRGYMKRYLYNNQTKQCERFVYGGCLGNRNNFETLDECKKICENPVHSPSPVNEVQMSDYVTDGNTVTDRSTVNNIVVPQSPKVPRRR
Assay [4] has as its target Chicken TFPI-Fc (chicken). As to conditions: domain or fragment.

Like-named read-outs stand apart in the source and are kept apart here.

TFPI-Fc (human IgG-Fc-tagged TFPI without the GPI anchor), sequence (P10646 29-209): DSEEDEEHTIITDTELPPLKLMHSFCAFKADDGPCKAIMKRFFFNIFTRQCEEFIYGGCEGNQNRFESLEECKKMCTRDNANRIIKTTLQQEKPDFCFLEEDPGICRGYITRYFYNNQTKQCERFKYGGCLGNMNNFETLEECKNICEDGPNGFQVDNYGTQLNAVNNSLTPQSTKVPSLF
mTFPI-Fc (Fc-tagged mouse TFPI) (mouse), sequence (O54819 29-217): as the sequence (O54819 29-217) above

As to “TcdB4.2_(1286-1805) (domain or fragment)”, the Kd (commonly the free concentration of one partner at which half of the binding sites on the other are occupied at equilibrium, for simple one-to-one binding) in assay [1] is 50 nM; in assay [2], 24 nM.

For TcdB2.1_(1285-1804) S1495I, the response in assay [1] came out at 0.38 nm.

TcdB11.2_(1285-1804) F1597S; V1598L: the response in assay [3] was 0.13 nm.

With TcdB2.11_(1286-1805), the Kd turned out to be 133 nM in assay [1] (domain or fragment), 90.9 nM in assay [2] (domain or fragment) and 205 nM in assay [4]. For the same substance, the off-rate constant (koff) (commonly the rate constant with which the complex falls apart) in assay [1] (domain or fragment) was determined as 0.0109 s⁻¹; in assay [2] (domain or fragment), 0.00623 s⁻¹; in assay [4] it was 0.0165 s⁻¹.

Regarding “TcdB11.2_(1285-1804) F1506S; D1511Y; F1597S; V1598L”, the response in assay [3] was found to be 0.67 nm.

Consider “TcdB2.1_(1285-1804) L1505P; C1509Y; E1547K; N1596K; Q1599K”, for which, in assay [1], the response is 0.1 nm.

Regarding TcdB11.2_(1285-1804) F1506S; D1511Y, the response in assay [3] was 0.74 nm.

Regarding “TcdB2.1_(1285-1804) S1495I; L1505P; C1509Y; E1547K”, the response in assay [1] turned out to be 0.62 nm.

As to “TcdB2.1_(1285-1804) S1495I; L1505P; C1509Y; N1596K; Q1599K”, in assay [1], the response was determined as 0.66 nm.

(Values after publication PMC9646764.)
